Laboratory results as given in patent publication US20110045007A1.
Substitutions are numbered along the chain they refer to. In names and notes the source's numbering stands.

B1: 2F8-HG F273A (antibody, part only; not given: 2F8 variable domains, not shown: a dimerising Fc or GST)
heavy, part: ASTKGPSVFPLAPCSRSTSESTAALGCLVKDYFPEPVTVSWNSGALTSGVHTFPAVLQSSGLYSLSSVVTVPSSSLGTKTYTCNVDHKPSNTKVDKRVAPEFLGGPSVFLFPPKPKDTLMISRTPEVTCVVVDVSQEDPEVQFNWYVDGVEVHNAKTKPREEQFNSTYRVVSVLTVLHQDWLNGKEYKCKVSNKGLPSSIEKTISKAKGQPREPQVYTLPPSQEEMTKNQVSLTCLVKGFYPSDIAVEWESNGQPENNYKTTPPVLDSDGSFALYSRLTVDKSRWQEGNVFSCSVMHEALHNHYTQKSLSLSLGK
B2: 2F8-HG F273L (antibody, part only; not given: 2F8 variable domains, not shown: a dimerising Fc or GST)
heavy, part: B1 heavy, part with A273L

Key:
[1] = target: 2F8-HG F273A (human); assay: non-covalent nano-electrospray mass spectrometry, 1 µM; self-association
[2] = target: 2F8-HG F273L (human); assay: as above

percentage molecules present as monomers [1] [%] | percentage molecules present as monomers [2] [%] | Binder
> 80 | – | B1
– | > 80 | B2
